Drawing on patent US7090842, this text covers cpm Bound and percent inhibition for one molecule.

Experiment [1] concerns the target mouse anti-CEA monoclonal antibody 8019. The experiment is described as follows: RIA, labeled Ab2 (3H1) on 8019-coated plates, no inhibitor.
Experiment [2] shares this target. In words: competition: Ab2 blocks binding of 8019 to CEA on MCF-7 cells.
The target is the same in experiment [3]. The experiment is described as follows: competition RIA, labeled Ab2 (3H1) on 8019-coated plates, 250 ng unlabeled 3H1.
Experiment [4] shares this target. In words: plate RIA, inhibition of radiolabeled 8019 binding to semipurified CEA, 25 ng 3H1.
Experiment [5] has the same target. The experiment is described as follows: competition RIA, labeled Ab2 (3H1) on 8019-coated plates with 0.125 µg unlabeled 3H1.
The target is the same in experiment [6]. The experiment is described as follows: competition RIA, labeled Ab2 (3H1) bound to 8019-coated plates with 0.125 µg unlabeled 3H1.

B1: monoclonal anti-idiotype antibody 3H1 (antibody, V domains shown)
VH: EVQLQQSGPELVKPGASLKISCEASGYSLTAYTMNWVKQSHGKSLEWVGLINPFSGDTNYSQKFTGKATLTVDRSSSTAYMELLSLTSEDSAVYYCVITPVPYWYFDVWGAGTTVTVSS
VL: DIKMTQSPSSMYASLGERVTITCKASQDINGYLNWFQQEPGKSPKTLIYRANRLIDGVPSRFSGSGSGQVYSLTISSLEYEDMGTYYCLQFDEFPWMFGGGTKLEIK
B1: the cpm Bound in experiment [1] was found to be 12000 cpm; in experiment [6], 439 cpm. Also, the percent inhibition in experiment [2] was over 85%; in experiment [3], over 90%; in experiment [4], 100%; in experiment [5] it was 97%.
